{"source": "patent US8673848", "about": "(Novartis, dated 2014)", "biological_target": "T1, human APJ receptor (hAPJ) (human, UniProt P35414 1-380)", "T1 sequence (looked up)": "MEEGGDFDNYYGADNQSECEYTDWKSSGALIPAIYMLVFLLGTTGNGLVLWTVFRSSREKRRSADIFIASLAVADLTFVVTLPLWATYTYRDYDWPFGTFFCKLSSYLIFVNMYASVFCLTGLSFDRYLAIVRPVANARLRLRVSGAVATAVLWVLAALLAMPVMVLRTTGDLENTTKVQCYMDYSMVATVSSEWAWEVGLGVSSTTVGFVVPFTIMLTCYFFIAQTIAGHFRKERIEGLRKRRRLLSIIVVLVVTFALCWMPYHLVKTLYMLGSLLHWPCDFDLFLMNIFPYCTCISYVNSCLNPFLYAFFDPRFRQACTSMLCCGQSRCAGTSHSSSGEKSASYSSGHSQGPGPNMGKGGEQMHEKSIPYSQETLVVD", "assay": "cell-based or functional assay", "note": "Bridges are numbered along the chain shown (N, C = ends). [ ]: non-standard residue; d: D form. Bip = N[C@@H](Cc1ccc(-c2ccccc2)cc1)C(=O)O; 3Pal = N[C@@H](Cc1cccnc1)C(=O)O; pGlu = O=C1CC[C@@H](C(=O)O)N1; Nle = CCCC[C@H](N)C(=O)O; Dab = NCC[C@H](N)C(=O)O"}
{"binder": "[pGlu]RKRLCHKGP[Nle]CF-OH (disulfide 6-12; SMILES CCCC[C@@H]1NC(=O)[C@@H]2CCCN2C(=O)CNC(=O)[C@H](CCCCN)NC(=O)[C@H](Cc2c[nH]cn2)NC(=O)[C@@H](NC(=O)[C@H](CC(C)C)NC(=O)[C@H](CCCNC(=N)N)NC(=O)[C@H](CCCCN)NC(=O)[C@H](CCCNC(=N)N)NC(=O)[C@@H]2CCC(=O)N2)CSSC[C@@H](C(=O)N[C@@H](Cc2ccccc2)C(=O)O)NC1=O)", "note": "[Example 34: pE-R-K-R-L-C-H-K-G-P-Nle-C-F-OH]", "values": [{"measurement": "hAPJ Ca2+ Flux EC50", "result": 3.21, "unit": "nM"}]}
{"binder": "[pGlu]RPRL[Dab]HFGP[Nle]D-Phenethylamine (lactam 6-12)", "note": "[Example 4: pE-R-P-R-L-Dab-H-F-G-P-Nle-D-Phenethylamine]", "values": [{"measurement": "hAPJ Ca2+ Flux EC50", "result": 747, "unit": "nM"}]}
{"binder": "[pGlu]RPRLCHKRP[Nle]CF-OH (disulfide 6-12; SMILES CCCC[C@@H]1NC(=O)[C@@H]2CCCN2C(=O)[C@H](CCCNC(=N)N)NC(=O)[C@H](CCCCN)NC(=O)[C@H](Cc2c[nH]cn2)NC(=O)[C@@H](NC(=O)[C@H](CC(C)C)NC(=O)[C@H](CCCNC(=N)N)NC(=O)[C@@H]2CCCN2C(=O)[C@H](CCCNC(=N)N)NC(=O)[C@@H]2CCC(=O)N2)CSSC[C@@H](C(=O)N[C@@H](Cc2ccccc2)C(=O)O)NC1=O)", "note": "[Example 45: pE-R-P-R-L-C-H-K-R-P-Nle-C-F-OH]", "values": [{"measurement": "hAPJ Ca2+ Flux EC50", "result": 6.55, "unit": "nM"}]}
{"binder": "[pGlu]RPFLCHKGP[Nle]CF-OH (disulfide 6-12; SMILES CCCC[C@@H]1NC(=O)[C@@H]2CCCN2C(=O)CNC(=O)[C@H](CCCCN)NC(=O)[C@H](Cc2c[nH]cn2)NC(=O)[C@@H](NC(=O)[C@H](CC(C)C)NC(=O)[C@H](Cc2ccccc2)NC(=O)[C@@H]2CCCN2C(=O)[C@H](CCCNC(=N)N)NC(=O)[C@@H]2CCC(=O)N2)CSSC[C@@H](C(=O)N[C@@H](Cc2ccccc2)C(=O)O)NC1=O)", "note": "[Example 36: pE-R-P-F-L-C-H-K-G-P-Nle-C-F-OH]", "values": [{"measurement": "hAPJ Ca2+ Flux EC50", "result": 7.36, "unit": "nM"}]}
{"binder": "[pGlu]RPRLCHKLP[Nle]CF-OH (disulfide 6-12; SMILES CCCC[C@@H]1NC(=O)[C@@H]2CCCN2C(=O)[C@H](CC(C)C)NC(=O)[C@H](CCCCN)NC(=O)[C@H](Cc2c[nH]cn2)NC(=O)[C@@H](NC(=O)[C@H](CC(C)C)NC(=O)[C@H](CCCNC(=N)N)NC(=O)[C@@H]2CCCN2C(=O)[C@H](CCCNC(=N)N)NC(=O)[C@@H]2CCC(=O)N2)CSSC[C@@H](C(=O)N[C@@H](Cc2ccccc2)C(=O)O)NC1=O)", "note": "[Example 44: pE-R-P-R-L-C-H-K-L-P-Nle-C-F-OH]", "values": [{"measurement": "hAPJ Ca2+ Flux EC50", "result": 5.94, "unit": "nM"}]}
{"binder": "[pGlu]RPELCHKGP[Nle]CF-OH (disulfide 6-12; SMILES CCCC[C@@H]1NC(=O)[C@@H]2CCCN2C(=O)CNC(=O)[C@H](CCCCN)NC(=O)[C@H](Cc2c[nH]cn2)NC(=O)[C@@H](NC(=O)[C@H](CC(C)C)NC(=O)[C@H](CCC(=O)O)NC(=O)[C@@H]2CCCN2C(=O)[C@H](CCCNC(=N)N)NC(=O)[C@@H]2CCC(=O)N2)CSSC[C@@H](C(=O)N[C@@H](Cc2ccccc2)C(=O)O)NC1=O)", "note": "[Example 40: pE-R-P-E-L-C-H-K-G-P-Nle-C-F-OH]", "values": [{"measurement": "hAPJ Ca2+ Flux EC50", "result": 7.99, "unit": "nM"}]}
{"binder": "[pGlu]RPRLCEKGP[Nle]CF-OH (disulfide 6-12; SMILES CCCC[C@@H]1NC(=O)[C@@H]2CCCN2C(=O)CNC(=O)[C@H](CCCCN)NC(=O)[C@H](CCC(=O)O)NC(=O)[C@@H](NC(=O)[C@H](CC(C)C)NC(=O)[C@H](CCCNC(=N)N)NC(=O)[C@@H]2CCCN2C(=O)[C@H](CCCNC(=N)N)NC(=O)[C@@H]2CCC(=O)N2)CSSC[C@@H](C(=O)N[C@@H](Cc2ccccc2)C(=O)O)NC1=O)", "note": "[Example 43: pE-R-P-R-L-C-E-K-G-P-Nle-C-F-OH]", "values": [{"measurement": "hAPJ Ca2+ Flux EC50", "result": 4.14, "unit": "nM"}]}
{"binder": "[pGlu]RDRLCHKGP[Nle]CF-OH (disulfide 6-12; SMILES CCCC[C@@H]1NC(=O)[C@@H]2CCCN2C(=O)CNC(=O)[C@H](CCCCN)NC(=O)[C@H](Cc2c[nH]cn2)NC(=O)[C@@H](NC(=O)[C@H](CC(C)C)NC(=O)[C@H](CCCNC(=N)N)NC(=O)[C@H](CC(=O)O)NC(=O)[C@H](CCCNC(=N)N)NC(=O)[C@@H]2CCC(=O)N2)CSSC[C@@H](C(=O)N[C@@H](Cc2ccccc2)C(=O)O)NC1=O)", "note": "[Example 35: pE-R-D-R-L-C-H-K-G-P-Nle-C-F-OH]", "values": [{"measurement": "hAPJ Ca2+ Flux EC50", "result": 11.1, "unit": "nM"}]}
{"binder": "[pGlu]RPRLCHKGP[3Pal]CF-OH (disulfide 6-12; SMILES CC(C)C[C@H](NC(=O)[C@H](CCCNC(=N)N)NC(=O)[C@@H]1CCCN1C(=O)[C@H](CCCNC(=N)N)NC(=O)[C@@H]1CCC(=O)N1)C(=O)N[C@H]1CSSC[C@@H](C(=O)N[C@@H](Cc2ccccc2)C(=O)O)NC(=O)[C@H](Cc2cccnc2)NC(=O)[C@@H]2CCCN2C(=O)CNC(=O)[C@H](CCCCN)NC(=O)[C@H](Cc2c[nH]cn2)NC1=O)", "note": "[Example 47: pE-R-P-R-L-C-H-K-G-P-(3-PyA)-C-F-OH]", "values": [{"measurement": "hAPJ Ca2+ Flux EC50", "result": 2.41, "unit": "nM"}]}
{"binder": "[pGlu]RPRLCHKGP[Nle]C-OH (disulfide 6-12; SMILES CCCC[C@@H]1NC(=O)[C@@H]2CCCN2C(=O)CNC(=O)[C@H](CCCCN)NC(=O)[C@H](Cc2c[nH]cn2)NC(=O)[C@@H](NC(=O)[C@H](CC(C)C)NC(=O)[C@H](CCCNC(=N)N)NC(=O)[C@@H]2CCCN2C(=O)[C@H](CCCNC(=N)N)NC(=O)[C@@H]2CCC(=O)N2)CSSC[C@@H](C(=O)O)NC1=O)", "note": "[Example 50: pE-R-P-R-L-C-H-K-G-P-Nle-C-OH]", "values": [{"measurement": "hAPJ Ca2+ Flux EC50", "result": 1.92, "unit": "nM"}]}
{"binder": "[pGlu]RPRLKFKGP[Nle]F (lactam 6-C)", "note": "[Example 5: pE-R-P-R-L-K-F-K-G-P-Nle-F]", "values": [{"measurement": "hAPJ Ca2+ Flux EC50", "result": 21.2, "unit": "nM"}]}
{"binder": "[pGlu]RPRLCHEGP[Nle]CF-OH (disulfide 6-12; SMILES CCCC[C@@H]1NC(=O)[C@@H]2CCCN2C(=O)CNC(=O)[C@H](CCC(=O)O)NC(=O)[C@H](Cc2c[nH]cn2)NC(=O)[C@@H](NC(=O)[C@H](CC(C)C)NC(=O)[C@H](CCCNC(=N)N)NC(=O)[C@@H]2CCCN2C(=O)[C@H](CCCNC(=N)N)NC(=O)[C@@H]2CCC(=O)N2)CSSC[C@@H](C(=O)N[C@@H](Cc2ccccc2)C(=O)O)NC1=O)", "note": "[Example 38: pE-R-P-R-L-C-H-E-G-P-Nle-C-F-OH]", "values": [{"measurement": "hAPJ Ca2+ Flux EC50", "result": 182, "unit": "nM"}]}
{"binder": "[pGlu]RPRLCHKDP[Nle]CF-OH (disulfide 6-12; SMILES CCCC[C@@H]1NC(=O)[C@@H]2CCCN2C(=O)[C@H](CC(=O)O)NC(=O)[C@H](CCCCN)NC(=O)[C@H](Cc2c[nH]cn2)NC(=O)[C@@H](NC(=O)[C@H](CC(C)C)NC(=O)[C@H](CCCNC(=N)N)NC(=O)[C@@H]2CCCN2C(=O)[C@H](CCCNC(=N)N)NC(=O)[C@@H]2CCC(=O)N2)CSSC[C@@H](C(=O)N[C@@H](Cc2ccccc2)C(=O)O)NC1=O)", "note": "[Example 39: pE-R-P-R-L-C-H-K-D-P-Nle-C-F-OH]", "values": [{"measurement": "hAPJ Ca2+ Flux EC50", "result": 8.2, "unit": "nM"}]}
{"binder": "[pGlu]RPRLCHKG[Pipecolic acid][Nle]CF-OH (disulfide 6-12)", "note": "[Example 46: pE-R-P-R-L-C-H-K-G-(Pipecolic acid)-Nle-C-F-OH]", "values": [{"measurement": "hAPJ Ca2+ Flux EC50", "result": 3.87, "unit": "nM"}]}
{"binder": "[pGlu]RPRLCHKGP[Nle]CH-OH (disulfide 6-12; SMILES CCCC[C@@H]1NC(=O)[C@@H]2CCCN2C(=O)CNC(=O)[C@H](CCCCN)NC(=O)[C@H](Cc2c[nH]cn2)NC(=O)[C@@H](NC(=O)[C@H](CC(C)C)NC(=O)[C@H](CCCNC(=N)N)NC(=O)[C@@H]2CCCN2C(=O)[C@H](CCCNC(=N)N)NC(=O)[C@@H]2CCC(=O)N2)CSSC[C@@H](C(=O)N[C@@H](Cc2c[nH]cn2)C(=O)O)NC1=O)", "note": "[Example 48: pE-R-P-R-L-C-H-K-G-P-Nle-C-H-OH]", "values": [{"measurement": "hAPJ Ca2+ Flux EC50", "result": 4.1, "unit": "nM"}]}
{"binder": "[pGlu]RPRDCHKGP[Nle]CF-OH (disulfide 6-12; SMILES CCCC[C@@H]1NC(=O)[C@@H]2CCCN2C(=O)CNC(=O)[C@H](CCCCN)NC(=O)[C@H](Cc2c[nH]cn2)NC(=O)[C@@H](NC(=O)[C@H](CC(=O)O)NC(=O)[C@H](CCCNC(=N)N)NC(=O)[C@@H]2CCCN2C(=O)[C@H](CCCNC(=N)N)NC(=O)[C@@H]2CCC(=O)N2)CSSC[C@@H](C(=O)N[C@@H](Cc2ccccc2)C(=O)O)NC1=O)", "note": "[Example 42: pE-R-P-R-D-C-H-K-G-P-Nle-C-F-OH]", "values": [{"measurement": "hAPJ Ca2+ Flux EC50", "result": 92.8, "unit": "nM"}]}
{"binder": "[pGlu]RPRLCHKGP[Nle]CE-OH (disulfide 6-12; SMILES CCCC[C@@H]1NC(=O)[C@@H]2CCCN2C(=O)CNC(=O)[C@H](CCCCN)NC(=O)[C@H](Cc2c[nH]cn2)NC(=O)[C@@H](NC(=O)[C@H](CC(C)C)NC(=O)[C@H](CCCNC(=N)N)NC(=O)[C@@H]2CCCN2C(=O)[C@H](CCCNC(=N)N)NC(=O)[C@@H]2CCC(=O)N2)CSSC[C@@H](C(=O)N[C@@H](CCC(=O)O)C(=O)O)NC1=O)", "note": "[Example 49: pE-R-P-R-L-C-H-K-G-P-Nle-C-E-OH]", "values": [{"measurement": "hAPJ Ca2+ Flux EC50", "result": 34.2, "unit": "nM"}]}
{"binder": "[pGlu]RPR[Bip]CHKGP[Nle]CF-OH (disulfide 6-12; SMILES CCCC[C@@H]1NC(=O)[C@@H]2CCCN2C(=O)CNC(=O)[C@H](CCCCN)NC(=O)[C@H](Cc2c[nH]cn2)NC(=O)[C@@H](NC(=O)[C@H](Cc2ccc(-c3ccccc3)cc2)NC(=O)[C@H](CCCNC(=N)N)NC(=O)[C@@H]2CCCN2C(=O)[C@H](CCCNC(=N)N)NC(=O)[C@@H]2CCC(=O)N2)CSSC[C@@H](C(=O)N[C@@H](Cc2ccccc2)C(=O)O)NC1=O)", "note": "[Example 41: pE-R-P-R-(4-PhF)-C-H-K-G-P-Nle-C-F-OH]", "values": [{"measurement": "hAPJ Ca2+ Flux EC50", "result": 6.91, "unit": "nM"}]}
{"binder": "[pGlu]RPRKCHKGP[Nle]CF-OH (disulfide 6-12; SMILES CCCC[C@@H]1NC(=O)[C@@H]2CCCN2C(=O)CNC(=O)[C@H](CCCCN)NC(=O)[C@H](Cc2c[nH]cn2)NC(=O)[C@@H](NC(=O)[C@H](CCCCN)NC(=O)[C@H](CCCNC(=N)N)NC(=O)[C@@H]2CCCN2C(=O)[C@H](CCCNC(=N)N)NC(=O)[C@@H]2CCC(=O)N2)CSSC[C@@H](C(=O)N[C@@H](Cc2ccccc2)C(=O)O)NC1=O)", "note": "[Example 37: pE-R-P-R-K-C-H-K-G-P-Nle-C-F-OH]", "values": [{"measurement": "hAPJ Ca2+ Flux EC50", "result": 1.4, "unit": "nM"}]}
